# Experimental data as given in the supplement of paper PMC9170038.
# Test system: MS2 coat protein
# Assay: apparent KD of MS2 coat protein; designed switch direction (-1 OFF switch, 1 ON switch): -1; higher = weaker reporter binding
# Procedure, shortened: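 The buffer was Tris-HCl pH 7.5 with KCl, MgCl2, BSA, DTT, tRNA and Tween-20. In it, SNAP-549-labelled MS2 coat protein was titrated in doubling steps from 0.7 or 1.5 nM to 3 µM over chip-bound RNA switches transcribed by stalled E. coli RNA polymerase on Illumina chips. Apparent KD is the per-design median over clusters of curve fits to normalised fluorescence.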
# [1] = Eterna round: R95, input ligand: microRNA oligo, concentration not stated
# [2] = input ligand: microRNA oligo, concentration not stated
# [3] = Eterna round: R95, input ligand: FMN 200 uM
# [4] = Eterna round: R95, input ligand: none
sequence,measurement,setting,value
"UACUUGUUAGGAUAUCUUACAUUUGCAUCAUAGCAACUAUUGGAGAAGGGACAUGAGGAUCACCCAUGUUUGGU [tap-tap-tappy13] (Eterna round: R97, puzzle: Exclusion 4)",apparent KD of MS2 coat protein,input ligand: FMN 200 uM,48.4 nM
same,apparent KD of MS2 coat protein,input ligand: none,41.9 nM
"UGGUCACAUGAGGAUCACCCAUGUCAGGAUAUCGUCACUGGAGCUUCGGCUCCAGUGACGAGAAGGGACAUAAU [E1/6-A1] (Eterna round: R97, puzzle: Exclusion 1)",apparent KD of MS2 coat protein,input ligand: FMN 200 uM,47 nM
same,apparent KD of MS2 coat protein,input ligand: none,394 nM
"AUCCUACAUGAGGAUCACCCAUGUCAGGAUAUCCAAGAAAUCUGGCCGUAUCGGCCAGGGAGAAGGGAUAUGGG [jl-ex1-4.64 ViennaUCT mod] (Eterna round: R97, puzzle: Exclusion 1)",apparent KD of MS2 coat protein,input ligand: FMN 200 uM,57.7 nM
same,apparent KD of MS2 coat protein,input ligand: none,74.2 nM
"UAAUAGUAUGUUAGGAUAUGCUGGUCCUUGGAUCAGCAGAAGGAACAUGAGGAUCACCCAUGUAGAAUAUUUUA [Mod of JL 18 - Jieux - Brourd's mod of Exclusion 4] (Eterna round: R97, puzzle: Brourd's mod of Exclusion 4)",apparent KD of MS2 coat protein,input ligand: FMN 200 uM,56.8 nM
same,apparent KD of MS2 coat protein,input ligand: none,18.1 nM
AAAAUGUGAGGAUAUCAGGUGUGCUAGAGAACUGGUACAUCUGAGAAGGCACAUGAGGAUCACCCAUGUUCUUC [Mat - Exclusion 4 - Mod of JL - D57] (puzzle: Exclusion 4),apparent KD of MS2 coat protein,[1],30.9 nM
"AGCUAGAUAGGAUAUGCCCGAGAUAACAUGAGGAUCACCCAUGUGACCGAAUCUAUUCUAGCAGAAGGGUUUAGGA [Mod of ViennaUCT 17 - Jieux - Exclusion 5] (Eterna round: R97, puzzle: Exclusion 5)",apparent KD of MS2 coat protein,input ligand: FMN 200 uM,16.5 nM
same,apparent KD of MS2 coat protein,input ligand: none,14 nM
"AACUCACAUGAGGAUCACCCAUGUGAGGAUAUGUGAGUGUGUAUGUUAUUAUAUAUUUAUAGAAGGCGCGUGAU [JR_Exc1_Sub029] (Eterna round: R97, puzzle: Exclusion 1)",apparent KD of MS2 coat protein,input ligand: FMN 200 uM,24.5 nM
same,apparent KD of MS2 coat protein,input ligand: none,23.1 nM
"CCUCUACAUGAGGAUCACCCAUGUCAGGAUAUCGUGUGUUUUUUUUCGGCCGCGCGUGCGAGAAGGGACGUCUU (Eterna round: R96, puzzle: Exclusion 1)",apparent KD of MS2 coat protein,input ligand: FMN 200 uM,35.2 nM
same,apparent KD of MS2 coat protein,[2],26 nM
same,apparent KD of MS2 coat protein,input ligand: none,36.2 nM
"AAGAAACAUGAGGAUCACCCAUGUGAGGAUAUGACCCGCCCGGCGUAAGCAAAAUAAAUCAGAAGGCACAAAGG [salish99_ex1_r4_007] (Eterna round: R97, puzzle: Exclusion 1)",apparent KD of MS2 coat protein,input ligand: FMN 200 uM,35.5 nM
same,apparent KD of MS2 coat protein,input ligand: none,37.3 nM
GGUUGGCGAGGAUAUACAUGAGGAUCACCCAUGUGAGACAAAAAAGUGAGGAAGAAAAGUAGAAGGCGCUGACG [salish99_ex3_r3_021] (puzzle: Exclusion 3),apparent KD of MS2 coat protein,[3],362 nM
same,apparent KD of MS2 coat protein,[1],54.1 nM
same,apparent KD of MS2 coat protein,[4],64.1 nM
"UUAAAUCAUGUAGGAUAUGCGUGGCGAAGCUAUGCAGAAGGACAUGAGGAUCACCCAUGUGCUUCCGUCUGAGAACAGACGGUA [Mat - Exclusion NG 1 - Mod of JL - D12] (Eterna round: R96, puzzle: Exclusion NG 1)",apparent KD of MS2 coat protein,input ligand: FMN 200 uM,91.8 nM
same,apparent KD of MS2 coat protein,[2],63.9 nM
same,apparent KD of MS2 coat protein,input ligand: none,93.1 nM
UCAUGGUAGCAGGAUAUGCUUGUAAUUUUUUAUGCAGAAGGGCUUACAUGAGGAUCACCCAUGUGUUAGGUCUA [JR_E6_Sub069] (puzzle: Exclusion 6),apparent KD of MS2 coat protein,[1],45.2 nM
GUGUACGGAGGAUAUGCUGGAAUCUAGCGAAGCUAGGUUCCACAUGAGGAUCACCCAUGUAGAAGGUCGUACAC [Dot plot directed A v8] (puzzle: Exclusion 2),apparent KD of MS2 coat protein,[1],29.6 nM
CUUUAGUGAGGAUAUCAGUAGUAAUACAAUAGUAUUACUGCUGAGAAGGCACAUGAGGAUCACCCAUGUUCCUC [Mat - Exclusion 4 - Mod of Omei - D83] (puzzle: Exclusion 4),apparent KD of MS2 coat protein,[1],33.1 nM
"GAGCUGAACUCAGGAUAUUGCGAGUCUUGGGUGACAGCUCUGACAUGAGGAUCACCCAUGUACUCCGAGAAGGGAGGCCGGUAA [Zainve] (Eterna round: R96, puzzle: Exclusion NG 2)",apparent KD of MS2 coat protein,input ligand: FMN 200 uM,125 nM
same,apparent KD of MS2 coat protein,[2],113 nM
same,apparent KD of MS2 coat protein,input ligand: none,185 nM
"UUAAAGGCGGAGGAUAUGUAGGCUUUCGAGUCGACAGAAGGCCGCACAUGAGGAUCACCCAUGUGGUCCUCCAA [EX6 A.20] (Eterna round: R97, puzzle: Exclusion 6)",apparent KD of MS2 coat protein,input ligand: FMN 200 uM,219 nM
same,apparent KD of MS2 coat protein,input ligand: none,51.8 nM
"UUGUGCACGCUGCGGUCCUACAUGAGGAUCACCCAUGUGGUCUGGUGGCGUGGGUCGCCGGACUUGGCUCGUCUUGG [salish99_S_TOV1_R5_026] (Eterna round: R97, puzzle: Sensor, turn-off variant 1)",apparent KD of MS2 coat protein,input ligand: FMN 200 uM,16.9 nM
same,apparent KD of MS2 coat protein,input ligand: none,16.9 nM
CAUACUGAAGUUAGGAUAUUCGGCCGAAUACGGAUGGAGAAGGGACAUGAGGAUCACCCAUGUAGAUAGUAAAG [EX-4 Malc #14] (puzzle: Brourd's mod of Exclusion 4),apparent KD of MS2 coat protein,[3],26.1 nM
same,apparent KD of MS2 coat protein,[1],21.7 nM
same,apparent KD of MS2 coat protein,[4],27.6 nM
"AAUAACAGAGGAUAUACGAAAAUAAGCGGAAACGCAAAGGGACAUGAGGAUCACCCAUGUAGAAGGCUGGAUAA [Tetraloop... 61% 2] (Eterna round: R96, puzzle: Exclusion 2)",apparent KD of MS2 coat protein,input ligand: FMN 200 uM,204 nM
same,apparent KD of MS2 coat protein,[2],19.6 nM
same,apparent KD of MS2 coat protein,input ligand: none,34.2 nM
"UCGAUGUGAGGAUAUAUUUUUAUUAGUCCUUAUGUUUUAUAACUUGAGGAUCACCCAAGUAGAAGGCGCUACGU [JR_Ex2_Sub062] (Eterna round: R97, puzzle: Exclusion 2)",apparent KD of MS2 coat protein,input ligand: FMN 200 uM,25.5 nM
same,apparent KD of MS2 coat protein,input ligand: none,40.9 nM
"ACAAGAAUUUUGCUCGUAAAGUAGGAACGCGAGAGCGGGACAUGAGGAUCACCCAUGUAGAGGCAGUUGGUGGAGAU [JR_SV3TOV2_Sub029] (puzzle: Sensor v3, turn-off variant 2)",apparent KD of MS2 coat protein,[3],42.2 nM
same,apparent KD of MS2 coat protein,[1],56 nM
same,apparent KD of MS2 coat protein,[4],43.4 nM
GGUUGGCGAGGAUAUACAUGAGGAUCACCCAUGUGAGAGAAAAAAGCGAGGAAGAAAAGUAGAAGGCGCUGACG [salish99_ex3_r3_027] (puzzle: Exclusion 3),apparent KD of MS2 coat protein,[3],137 nM
same,apparent KD of MS2 coat protein,[1],43 nM
same,apparent KD of MS2 coat protein,[4],56 nM
AGUUGGCGAGGAUAUACAUGAGGAUCACCCAUGUGAAAUUAAAGUGAGGAAAUGAAAAGUAGAAGGCGCUGACA [Mat - Exclusion 3 - Mod of Salish D56] (puzzle: Exclusion 3),apparent KD of MS2 coat protein,[3],277 nM
same,apparent KD of MS2 coat protein,[1],31.7 nM
same,apparent KD of MS2 coat protein,[4],46.7 nM
"AUGGUAUUAGGAUAUACAUGAGGAUCACCCAUGUGGCAUCAUGCGGUGCCGACCUACUGUAGAAGGAGUGUAAA [Eternabot (L1) Solution 64] (Eterna round: R97, puzzle: Exclusion 3)",apparent KD of MS2 coat protein,input ligand: FMN 200 uM,51.3 nM
same,apparent KD of MS2 coat protein,input ligand: none,59 nM
"UGUUCGUCAGGAUAUUCUACUUAUUACAUGAGGAUCACCCAUGUGUAUGUACAAGGGUGUGAAGAAGGGACUUGUU [LRO-Excl5-08-mod A17d by Omei] (Eterna round: R97, puzzle: Exclusion 5)",apparent KD of MS2 coat protein,input ligand: FMN 200 uM,245 nM
same,apparent KD of MS2 coat protein,input ligand: none,885 nM
GUAGAGUAAGGAUAUGAUGAAUAGGAUAGAAUGGUUAGAAAUCAGAAGGUACAUGAGGAUCACCCAUGUAAUGU [Excluse me!!!! 13 - Jieux - Exclusion 4] (puzzle: Exclusion 4),apparent KD of MS2 coat protein,[1],21.4 nM
"UUCCGCCUAGGAUAUUGGAUACUCUACAUGAGGAUCACCCAUGUGAGCAUGAAAGAUAUCCAAGAAGGAGGUAGCC [Eternabot (L2) Solution 68] (Eterna round: R97, puzzle: Exclusion 5)",apparent KD of MS2 coat protein,input ligand: FMN 200 uM,16.7 nM
same,apparent KD of MS2 coat protein,input ligand: none,14.6 nM
"ACCUCACAUGAGGAUCACCCAUGUCAGGAUAUAAAAGGAGGGCGAGGCAGCCAGGAAGUUAGAAGGGACACGCU [EX1 B.11] (Eterna round: R97, puzzle: Exclusion 1)",apparent KD of MS2 coat protein,input ligand: FMN 200 uM,21.2 nM
same,apparent KD of MS2 coat protein,input ligand: none,23.7 nM
"AGAAAUGCCCAUGGCCGCAAGCUUUUUACUUGUCUUACCACAUGAGGAUCACCCAUGUGACAUGGGCUCCUGAUAAU [Mabeonen] (puzzle: Sensor v3, turn-off variant 2)",apparent KD of MS2 coat protein,[3],15 nM
same,apparent KD of MS2 coat protein,[1],27.5 nM
same,apparent KD of MS2 coat protein,[4],13.4 nM
"GGUGAAGCAGGAUAUGUAUCGAUAUACAUGAGGAUCACCCAUGUCAUGUUUGAAUUGCAUAUAGAAGGGCUUCACC [Exclusion 5 (FMN-MS2 slide v.3)] (Eterna round: R97, puzzle: Exclusion 5)",apparent KD of MS2 coat protein,input ligand: FMN 200 uM,16.4 nM
same,apparent KD of MS2 coat protein,input ligand: none,13.8 nM
"GAGUUAGCGUGAGGAAUAUACAUGAGGAUCACCCAUGUUGGCUAAUAUAUUGCUCGUCUUAUAACAACAAUUAACUG [Mod-hoo-honey#a] (Eterna round: R97, puzzle: Sensor, turn-off variant 1)",apparent KD of MS2 coat protein,input ligand: FMN 200 uM,16 nM
same,apparent KD of MS2 coat protein,input ligand: none,16.4 nM
"UUUAGUUCAGGAUAUGUAGUUUUAAACAUGAGGAUCACCCAUGUAGAACCUGAUCCUGCUACAGAAGGGAACAUUU [Mat - Exclusion 5 - Eli Mod - D14] (Eterna round: R97, puzzle: Exclusion 5)",apparent KD of MS2 coat protein,input ligand: FMN 200 uM,32 nM
same,apparent KD of MS2 coat protein,input ligand: none,18.2 nM
"UUCUGGACAGGAUAUGUACUUGAGCACUUGAGGAUCACCCAAGUCGUCAAGUACUCAGGCACAGAAGGGUUAAUUU [jl-ex5.4.67 ViennaUCT mod] (Eterna round: R97, puzzle: Exclusion 5)",apparent KD of MS2 coat protein,input ligand: FMN 200 uM,30.7 nM
same,apparent KD of MS2 coat protein,input ligand: none,15.3 nM
GAGAACGUAGGAUAUACAUGAGGAUCACCCAUGUGAGGAAGGAGUAGGAAGAGUGGAAGUAGAAGGACGAAGAG [JR_Exclu3_Sub071] (puzzle: Exclusion 3),apparent KD of MS2 coat protein,[3],29.3 nM
same,apparent KD of MS2 coat protein,[1],36.3 nM
same,apparent KD of MS2 coat protein,[4],43.8 nM
